For 61 molecules, peptide exchange yield results are on record in patent publication US20180222961A1 (IMMATICS BIOTECHNOLOGIES, published 2018).

The labels stand for the following.
B1: IPTYGRTF (peptide)
peptide: IPTYGRTF
B2: APSTPRITTF (peptide)
peptide: APSTPRITTF
B3: YPGLRGSPM (peptide)
peptide: YPGLRGSPM
B4: SPAPLKLSRTPA (peptide)
peptide: SPAPLKLSRTPA
B5: KPIESTLVA (peptide)
peptide: KPIESTLVA
B6: LPEQTPLAF (peptide)
peptide: LPEQTPLAF
B7: RPRSPAGQVAAA (peptide)
peptide: RPRSPAGQVAAA
B8: GPFPLVYVL (peptide)
peptide: GPFPLVYVL
B9: RPRSPAGQVAA (peptide)
peptide: RPRSPAGQVAA
B10: APLKLSRTPA (peptide)
peptide: APLKLSRTPA
B11: AAASPLLLL (peptide)
peptide: AAASPLLLL
B12: FPFNPLDF (peptide)
peptide: FPFNPLDF
B13: SPMHDRWTF (peptide)
peptide: SPMHDRWTF
B14: SPALHIGSV (peptide)
peptide: SPALHIGSV
B15: TPTKETVSL (peptide)
peptide: TPTKETVSL
B16: RPRSPAGQVA (peptide)
peptide: RPRSPAGQVA
B17: SPGAQRTFFQL (peptide)
peptide: SPGAQRTFFQL
B18: NPDLRRNVL (peptide)
peptide: NPDLRRNVL
B19: HTFGLFYQR (peptide)
peptide: HTFGLFYQR
B20: RRIHTGEKPYK (peptide)
peptide: RRIHTGEKPYK
B21: TTALKTTSR (peptide)
peptide: TTALKTTSR
B22: SLKERNPLK (peptide)
peptide: SLKERNPLK
B23: GTVNPTVGK (peptide)
peptide: GTVNPTVGK
B24: VTDLISPRK (peptide)
peptide: VTDLISPRK
B25: RSRLNPLVQR (peptide)
peptide: RSRLNPLVQR
B26: KTFTIKRFLAK (peptide)
peptide: KTFTIKRFLAK
B27: KSLIKSWKK (peptide)
peptide: KSLIKSWKK
B28: AVFNPRFYRTY (peptide)
peptide: AVFNPRFYRTY
B29: QIHDHVNPK (peptide)
peptide: QIHDHVNPK
B30: SVSSETTKIKR (peptide)
peptide: SVSSETTKIKR
B31: RLQEWKALK (peptide)
peptide: RLQEWKALK
B32: VTADHSHVF (peptide)
peptide: VTADHSHVF
B33: GTYAHTVNR (peptide)
peptide: GTYAHTVNR
B34: GAYAHTVNR (peptide)
peptide: GAYAHTVNR
B35: RQPERTILRPR (peptide)
peptide: RQPERTILRPR
B36: KTFPASTVF (peptide)
peptide: KTFPASTVF
B37: SVSGVKTTF (peptide)
peptide: SVSGVKTTF
B38: RMFADDLHNLNK (peptide)
peptide: RMFADDLHNLNK
B39: ISYSGQFLVK (peptide)
peptide: ISYSGQFLVK
B40: RVFTSSIKTK (peptide)
peptide: RVFTSSIKTK
B41: STTFPTLTK (peptide)
peptide: STTFPTLTK
B42: SVLTSSLVK (peptide)
peptide: SVLTSSLVK
B43: IVQEPTEEK (peptide)
peptide: IVQEPTEEK
B44: RLFSWLVNR (peptide)
peptide: RLFSWLVNR
B45: SAAPPSYFR (peptide)
peptide: SAAPPSYFR
B46: NLSSITHER (peptide)
peptide: NLSSITHER
B47: AIKVIPTVFK (peptide)
peptide: AIKVIPTVFK
B48: KTLELRVAY (peptide)
peptide: KTLELRVAY
B49: GTNTVILEY (peptide)
peptide: GTNTVILEY
B50: VSKTTGMEF (peptide)
peptide: VSKTTGMEF
B51: RLFTSPIMTK (peptide)
peptide: RLFTSPIMTK
B52: VLADSVTTK (peptide)
peptide: VLADSVTTK
B53: RVNAIPFTY (peptide)
peptide: RVNAIPFTY
B54: SSSSATISK (peptide)
peptide: SSSSATISK
B55: RAKELEATF (peptide)
peptide: RAKELEATF
B56: RMASPVNVK (peptide)
peptide: RMASPVNVK
B57: RLKGDAWVYK (peptide)
peptide: RLKGDAWVYK
B58: AVRKPIVLK (peptide)
peptide: AVRKPIVLK
B59: AAFVPLLLK (peptide)
peptide: AAFVPLLLK
B60: RTEEVLLTFK (peptide)
peptide: RTEEVLLTFK
B61: TVAPPQGVVK (peptide)
peptide: TVAPPQGVVK

The target of the first experiment is T1, HLA-B*07:02 (human).
T1 construct: also called peptide-receptive MHC molecules
The experiment in a line: UV-exchange b2m ELISA; exchange-yield grade. The source says: (§1) Candidate peptides for T cell based therapies according to the present invention were further tested for their MHC binding capacity (affinity). The individual peptide-MHC complexes were produced by UV-ligand exchange, where a UV-sensitive peptide is cleaved upon UV-irradiation, and exchanged with the peptide of interest as analyzed. Only peptide candidates that can effectively bind and stabilize the peptide-receptive MHC molecules prevent dissociation of the MHC complexes. To determine the yield of the exchange reaction, an ELISA was performed based on the detection of the light chain (β2m) of stabilized MHC complexes. The assay was performed as generally described in Rodenko et al. (Rodenko et al., 2006).
(§2) 96 well MAXISorp plates (NUNC) were coated over night with 2 ug/ml streptavidin in PBS at room temperature, washed 4× and blocked for 1 h at 37° C. in 2% BSA containing blocking buffer. Refolded HLA-A*02:01/MLA-001 monomers served as standards, covering the range of 15-500 ng/ml. Peptide-MHC monomers of the UV-exchange reaction were diluted 100-fold in blocking buffer. Samples were incubated for 1 h at 37° C., washed four times, incubated with 2 ug/ml HRP conjugated anti-β2m for 1 h at 37° C., washed again and detected with TMB solution that is stopped with […]. Absorption was measured at 450 nm. Candidate peptides that show a high exchange yield (preferably higher than 50%, most preferred higher than 75%) are generally preferred for a generation and production of antibodies or fragments thereof, and/or T cell receptors or fragments thereof, as they show sufficient avidity to the MHC molecules and prevent dissociation of the MHC complexes.
(An ELISA detects its analyte on a solid surface through an enzyme-linked reagent.)
With B1, the peptide exchange yield fell in the range of 50 to 75%.
In turn, B2 displayed a peptide exchange yield of 50 to 75%.
On the same count and under the same terms, then B3, with 50 to 75%; and B4, with 20 to 50%; and B5, with 50 to 75%.
Molecule B6 returned a peptide exchange yield of 20 to 50%.
The same measure, in the same setting: then B7, with 50 to 75%; and B8, with 50 to 75%.
The same measure, in the same setting: with B9 the figure was 50 to 75%; with B10, 50 to 75%; with B11, 20 to 50%.
Still for that read-out and setting: with B12 the figure was 20 to 50%; with B13, 50 to 75%.
In turn, B14 had a peptide exchange yield of 50 to 75%.
Same read-out and setting: then B15, with 50 to 75%; and B16, with 50 to 75%; and B17, with 50 to 75%.
For B18, the peptide exchange yield lay in the range of 50 to 75%.

For the next experiment, the target named is T2, HLA-A*03:01 (human).
T2 construct: also called peptide-receptive MHC molecules
Nature of the experiment: UV-exchange b2m ELISA; exchange-yield grade.
Text: as §1, §2
In the case of B19, the peptide exchange yield was in the range of 20 to 50%.
Still for that read-out and setting: then B20, with 20 to 50%; and B21, with 10 to 20%.
The same measure, in the same setting: then B22, with 20 to 50%; and B23, with 20 to 50%.
B24 had a peptide exchange yield of 20 to 50%.
Molecule B25 yielded a peptide exchange yield of 20 to 50%.
As to B26, the peptide exchange yield is 20 to 50%.
Same read-out and setting: with B27 the figure was 20 to 50%; with B28, 20 to 50%.
With B29, the peptide exchange yield is 20 to 50%.
The molecule B30 displayed a peptide exchange yield of 20 to 50%.
Molecule B31 gave a peptide exchange yield of 50 to 75%.
Same read-out and setting: then B32, with 10 to 20%; and B33, with 50 to 75%; and B34, with 50 to 75%.
On the same count and under the same terms, with B35 the figure was 20 to 50%; with B36, 10 to 20%; with B37, 20 to 50%.
As to B38, the peptide exchange yield was in the range of 50 to 75%.
Still for that read-out and setting: then B39, with 50 to 75%; and B40, with 20 to 50%; and B41, with 20 to 50%.
Same read-out and setting: with B42 the figure was 20 to 50%; with B43, 20 to 50%; with B44, 50 to 75%.
Same read-out and setting: then B45, with 20 to 50%.
B46: the peptide exchange yield lay in the range of 20 to 50%.
The same measure, in the same setting: with B47 the figure was 20 to 50%; with B48, 20 to 50%; with B49, 50 to 75%.
Still for that read-out and setting: with B50 the figure was 10 to 20%; with B51, 50 to 75%.
On the same count and under the same terms, then B52, with 20 to 50%.
As for B53, the peptide exchange yield was 50 to 75%.
Consider B54, for which the peptide exchange yield was 20 to 50%.
Turning to B55, the peptide exchange yield lay in the range of 10 to 20%.
Same read-out and setting: then B56, with above 75%; and B57, with 50 to 75%.
The same measure, in the same setting: with B58 the figure was 50 to 75%; with B59, 20 to 50%.
Still for that read-out and setting: then B60, with 20 to 50%; and B61, with 20 to 50%.
